Test [1] has as its target T1, amyloid plaques in APP, PS1 mouse brain (Homo sapiens, UniProt P05067).
T1 construct: host or cells: APP, PS1 mouse brain (earlier studies: Wengenack 2000; Poduslo 2002)
The following applies: PS1 mouse brains ex vivo following IV injection (Poduslo 2002); cited from earlier work.

The target in test [2] is T2, amyloid plaques in APP, PS1 mouse brain sections (Homo sapiens, UniProt P05067).
T2 construct: from tissue; host or cells: brain of APP (Tg2576) x PS1 (M146L6.2) double transgenic mice
Description: Labeling of amyloid plaques in APP, PS1 transgenic mouse brain sections in vitro. Type of test: binding. On the procedure: f. Labeling of Amyloid Plaques in Human AD and APP, PS1 Mouse Brain Sections In Vitro with Diamine- and Gadolinium-Substituted Aβ30 Peptides. HPLC-purified ^125I-Aβ40, ^125I-Aβ30, ^125I-[N-4ab/Q-4ab]Aβ30, ^125I-Gd[N-4ab/Q-4ab]Aβ30, or buffer was incubated with sections of unfixed AD temporal lobe cortex using the same procedure we used previously (Wengenack, T. M., et al., Neuroscience 101:939–944, 2000). Briefly, the 15 μm-sections were incubated for 3 hours at RT with 100 pM radioiodinated peptide or alone in 250 μl of TBS (50 mM Tris HCl, 138 mM sodium chloride, pH 7.0) containing 0.1% BSA, 0.6 mg/ml magnesium chloride, 0.04 mg/ml bacitracin, 0.002 mg/ml chymostatin, and 0.004 mg/ml leupeptin. The sections then underwent immunohistochemistry (IH) for amyloid using an anti-Aβ monoclonal mouse antibody (4G8, 1:1000, Signet Laboratories, Dedham, Mass.). Next, the sections were dipped in an autoradiographic emulsion (Type NTB-3, Kodak, Rochester, N.Y.) for direct comparison of ^125I-labeled amyloid deposits to anti-Aβ IH. The slides were dipped in emulsion, exposed for various durations, and developed according to the instructions. The sections were dehydrated with successive changes of ethanol and xylene and then coverslipped. […]

The test system of test [3] is amyloid plaques in human AD temporal lobe cortex sections. Description: Labeling of amyloid plaques in human AD brain sections in vitro (emulsion autoradiography). Format: binding. As to the method:
f. Labeling of Amyloid Plaques in Human AD and APP, PS1 Mouse Brain Sections In Vitro with Diamine- and Gadolinium-Substituted Aβ30 Peptides. HPLC-purified ^125I-Aβ40, ^125I-Aβ30, ^125I-[N-4ab/Q-4ab]Aβ30, ^125I-Gd[N-4ab/Q-4ab]Aβ30, or buffer was incubated with sections of unfixed AD temporal lobe cortex using the same procedure we used previously (Wengenack, T. M., et al., Neuroscience 101:939–944, 2000). Briefly, the 15 μm-sections were incubated for 3 hours at RT with 100 pM radioiodinated peptide or alone in 250 μl of TBS (50 mM Tris HCl, 138 mM sodium chloride, pH 7.0) containing 0.1% BSA, 0.6 mg/ml magnesium chloride, 0.04 mg/ml bacitracin, 0.002 mg/ml chymostatin, and 0.004 mg/ml leupeptin. The sections then underwent immunohistochemistry (IH) for amyloid using an anti-Aβ monoclonal mouse antibody (4G8, 1:1000, Signet Laboratories, Dedham, Mass.). Next, the sections were dipped in an autoradiographic emulsion (Type NTB-3, Kodak, Rochester, N.Y.) for direct comparison of ^125I-labeled amyloid deposits to anti-Aβ IH. The slides were dipped in emulsion, exposed for various durations, and developed according to the instructions. The sections were dehydrated with successive changes of ethanol and xylene and then coverslipped.

The target of test [4] is T3, amyloid plaques in APP, PS1 mice (Homo sapiens, UniProt P05067).
T3 construct: host or cells: APP, PS1 mouse brain (earlier studies: Wengenack 2000; Poduslo 2002)
The following applies: 200 μg, PS1 mice at 27 weeks of age (Wengenack 2000); cited from earlier work.

The target of test [5] is T4, amyloid plaques in APP, PS1 transgenic mouse brain (Homo sapiens, UniProt P05067).
T4 construct: from tissue; host or cells: brain of APP (Tg2576) x PS1 (M146L6.2) double transgenic mice
The test is described as follows: Labeling of amyloid plaques in APP, PS1 transgenic mouse brain in vivo after IV injection. The following applies: 21-month old APP, PS1 mice, 750 μg IV, four hours. As to the method: a. Subjects. These evaluations were performed using transgenic mice that express two mutant human proteins associated with familial AD and have been described in detail elsewhere (Holcomb, L., et al., Nature Med. 4:97–100, 1998). Hemizygous transgenic mice (Tg2576) expressing mutant human amyloid precursor protein (APP695) (Hsiao, K., et al., Science 274:99–102, 1996) were mated with a second strain of hemizygous transgenic mice (M146L6.2) expressing mutant human presenilin 1 (PS1) (Holcomb, L., et al., supra, 1998). The animals were genotyped for the expression of both transgenes by a PCR method using a sample of mouse-tail DNA. […]
g. […] Silver grains from sections exposed for 6 days and 2 weeks were quantitated using unbiased, stereological techniques. Sections exposed for 4 or 8 weeks were somewhat overexposed such that over many of the plaques the exposed silver grains had become confluent could not be counted accurately. Silver grains were counted over plaques in three sections from each animal in the retrosplenial cortex and CA1 region of the hippocampus using a 10-μm×10-μm dissector at 400×. The mean background level of exposed silver grains was also determined for each section. The results were expressed as the mean number of silver grains/100 μm^2 minus the background. […]

T1 sequence (P05067 672-711 limits assumed): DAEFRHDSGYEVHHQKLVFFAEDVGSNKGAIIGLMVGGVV
T2 sequence (P05067 672-711 limits assumed): as above
T3 sequence (P05067 672-711 limits assumed): as above
T4 sequence (P05067 672-711 limits assumed): as above

For the substance “(PUT-)Gd-Aβ40: polyamine (putrescine)-modified Gd-Aβ40 of a previous study”, in test [1], the “contrast enhancement of plaques during MRI” value was “provide contrast enhancement of plaques”.
On to “Aβ40: human amyloid-β peptide Aβ40, radioiodinated; served as a positive control”, for which the “labeling of neuritic plaques” value in test [2] (100 pM, unfixed APP) was “labeled most of the neuritic plaques”; in test [3] (100 pM radioiodinated peptide, 3 hours at RT, unfixed human AD temporal lobe cortex sections), “labeled most dense-core, neuritic type plaques”. Besides, the “duration of exposure to achieve a detectable amount of silver grains” value in test [2] (APP, equal amounts of peptide) is given as “one”. For the same substance, in test [3] (100 pM radioiodinated peptide, human AD sections), the “labeling of small amyloid deposits” value is recorded as “labeled only a few”. The “exposure time required to detect exposed silver grains” value in test [3] (human AD sections, equal amounts of peptide (100 pM)) is 7 days. Also, in test [4], the “labeling of plaques in vivo, previous study” value is reported as “did not label plaques”. Besides, in test [5], the “labeling of plaques in vivo” value is “also labeled plaques in vivo”.
Regarding “Gd-Aβ40: Gd-DTPA substituted Aβ40 of a previous study”, the “contrast enhancement of plaques during MRI” value in test [1] is given as “not to provide contrast enhancement of plaques”.

Source of the values: US7279149B2, “Amino acid composition with increased blood brain barrier permeability” (Mayo Foundation for Medical Education and Research, priority 2003, dated 2007).
